Source: article PMC12754631, “Cis‐2‐decenoic acid modulates Pseudomonas aeruginosa virulence through a noncanonical transcriptional regulator” (mLife, 2025)

What was measured:
[1] = molecular target: T1, FadD1 (Pseudomonas aeruginosa PAO1) (UniProt Q9HYU4); assay: EMSA
T1 sequence: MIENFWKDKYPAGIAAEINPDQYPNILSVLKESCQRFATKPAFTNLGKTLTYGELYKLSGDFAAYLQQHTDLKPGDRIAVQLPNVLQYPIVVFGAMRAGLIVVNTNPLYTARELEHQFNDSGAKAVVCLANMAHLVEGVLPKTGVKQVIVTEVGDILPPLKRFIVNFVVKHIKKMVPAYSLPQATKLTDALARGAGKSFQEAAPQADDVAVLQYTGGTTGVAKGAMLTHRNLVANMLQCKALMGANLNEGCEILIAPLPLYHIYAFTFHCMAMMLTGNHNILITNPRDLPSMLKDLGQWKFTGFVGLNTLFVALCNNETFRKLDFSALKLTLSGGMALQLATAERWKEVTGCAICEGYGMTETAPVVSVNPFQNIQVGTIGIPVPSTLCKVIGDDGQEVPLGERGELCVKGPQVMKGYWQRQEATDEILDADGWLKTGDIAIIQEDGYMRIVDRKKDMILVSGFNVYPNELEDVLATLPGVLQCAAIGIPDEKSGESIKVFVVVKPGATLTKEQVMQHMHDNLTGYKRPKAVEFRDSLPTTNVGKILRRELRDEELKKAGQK

FadD1 = molecular target: T2, FadD1 (Pseudomonas aeruginosa, UniProt Q9HYU4); assay: microscale thermophoresis; type: binding
T2 construct: expressed in E. coli BL21, Ni-NTA, His-tag removed by TEV protease; labelled for MST

“GTGCGCACAATTGAACAGCGAACGCTTCACACGGTCCCCCGAAGTTCCATCGGGACTTATTGTTCTAATGCAACAAGTCCGTTCATCGAACAGTTCTGTGAAAGACAACAAACTAGCGGCGACGCATGAACAACCTGTTAAAAACGGCGCTATGAAATCTCGTTCTTTTCTATTTTCACTTTCGTGCTAGATATTCAGCCGTCGCGCTCCGCCATGGCGCGCTTGCCATGTATGCAACAAGGCGAAGTTCAGGGAGAACTCCGGCATCTGCATGAGAT (double strand) [PA0692 promoter, AGGGCGG deleted]” was tested, and the binding [1] was “no binding”.
For “ATCTCATGCAGATGCCGGAGTTCTCCCTGAACTTCGCCTTGTTGCATACATGGCAAGCGCGCCATGGCGGAGCGCGACGGCTGAATATCTAGCACGAAAGTGAAAATAGAAAAGAACGAGATTTCATAAGGGCGGGCGCCGTTTTTAACAGGTTGTTCATGCGTCGCCGCTAGTTTGTTGTCTTTCACAGAACTGTTCGATGAACGGACTTGTTGCATTAGAACAATAAGTCCCGATGGAACTTCGGGGGACCGTGTGAAGCGTTCGCTGTTCAATTGTGCGCAC (double strand) [PA0692 promoter]”, the binding [1] was “binds”.
With “GTCGGCGTTTCATGGAATTGTCACAACCGCACAGTATCGCTTGCGGTAAAGCGGCCCAGGTGGTCGAACGTTGTCATAGGGAGGGGGATGCTCGATGGCTGAAGGCTGCGTCCTGAACGGTGCTGGCATAACAGATAGGGTTGCCATGATTTTGCCGTATCGGCAAGGCTGCGCGCTTGACAGCGTCATACCCCGGGCCAATTCTGCTGTGATGCATTTTATCGATCAGGGCTTACTGCAATGAGGAATGACGGAGGCTTTTTGCTGTGG (double strand) [rhlR promoter]” the binding [1] was “no binding”.
Compound `CCCCCCC/C=C\C(=O)O` [cis-DA] has a Kd (FadD1) of 1060 ± 140 nM.
In the case of `CCCCCCCCC/C=C\C(=O)O` [BDSF], the Kd (FadD1) is reported as 1650 ± 210 nM.
